What follows are sequences tested on Saccharomyces cerevisiae (assay: transcriptional activation domain activity (GFP:mCherry ratio, weighted mean of sorted bins, harmonized to initial dataset scale) (arbitrary fluorescence ratio units); higher = stronger transcriptional activation). Details: beta-estradiol 1 µM; induction time 4 h.
In short: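 Each value is an activation activity: the read-weighted mean of bin median fluorescence, averaged across barcodes, then mapped linearly to the initial dataset scale. The tiles, fused to an estradiol-inducible synthetic transcription factor, sat at the yeast URA3 locus in GFP-reporter diploids. Cells spent 4 hours at 30 °C in SC with 1 uM beta-estradiol before sorting into 8 GFP:mCherry bins, and tiles below 50 reads were removed.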

Point of comparison: “RRVLVLVMEELGYRTDHAFRIAHRLDRLYQMALTRFLTLTAGVIDLMERIRMS”, “transcriptional activation domain activity” value 58400. Against it:
- MVCFKRSGLSLVFFFFFFFFFLLLVFFLFFFSLLLPIIISLVVRADLLMVHPH — lower, 31200
- PLAGNSPGLPPEEVRNNSENASHNNETGPIETELAQTISNEFWTAYNLGWEEL — lower, 56400
- SNHGLIYSKPLAWEWNCIIDSIENSLVGYCMEQIFVVHVSRLLLLQWSITQIF — lower, 56000
- SLVDFHKFFKWLLLKVVKGLNKLRNLHNERPKELQTNEMEHLLNLMKIVRFFA — lower, 46500
- IIKLLVFTLWVLDSMHLILCTIAIYWYLIRNFNNTTNLQLNHWSMNLQTDCNG — lower, 43600
- SFSILYSRFAGPSIYMGMRNLLILLYVSMAIWIPHLIYFWLSVLSLCIAPFLF — lower, 37800
- VLKALWSFAYTFGLFIFCNGSIYYFVARIFGSYYRVLDSPIVGFRWSNIHLFL — lower, 57100
- KHERDDEKERKHRKHDKPSKDKDGEDDDGEGRRHKKHRKHKERGSDDEDEHRK — lower, 22500
- MPSITLTWPDRAYFYSLLVVSLLSAKLLHVFSHLTTIPIFLFLLYFPTFFFLD — lower, 57300
- AIHRQLVESILGTTLRCTADISALDVSIADTLWYLLDGTARMVIQFFAVVLFA — higher, 62700
- EEPVPKKRGRGRPPKNPAAKAKAAAAAAAAKKAERLPKVRVHKAHTPLRENIH — lower, < 6570
- AILDLAFYIRWQNNNYHLAPSIPLSKMYSNSLLVVLNARIKIVGGRNEYKTNS — lower, 31900
- IIQKLCFITVKLFFTKYIPLQAILINLILIGYLMFVVRHFPYRYTTLNNLELI — lower, 55000
- RIVSSLFFICHGNYYIAFVILSKALDDYVPKIYVLNLNLNHLYLGLLIMCLLL — lower, 35800
- QAHPPVQVRKTSHKAAEQKRRDSLKTTFDDLRGTASAAAPPVGRHGRACAPGA — lower, 35300
- AYANDKESTREKFILVVWIGPQCKVMRKAKVSVHAADVKTTLRVYSIEVAARE — lower, 35700
- GGEDIAAAENTGGSPAAGSGRGRGRSSRGGRGRGSGRGRGRGGSNAAGGSAAG — lower, 16500
- NTWLLFRQVVDVILLNDFVAYCMFAFSCFRVPEGLSLAVHIMRWVAGIALIAF — lower, 56200
- EGEGAADPAAGAGAGAEEDGEEEEDEGAADPAAGAGAGDEEGEGAAEEGAAES — lower, 17600
- SKRREIRKTKEARREGSERRDGEADSEEKAREGKGSKRRRRGTGRRAEEAAKG — lower, 27400
- MEPRLGHPALLVYSLLLLLLILRWKMFSFLCVVFQWRCIMLFLVFLVFCWGVG — lower, 35900
- MLWVCTSRKGESRVVCLGLAHLSIWIRGLLVLERILVCSMSLSCWRVGILKCT — lower, 53800
- QGAAKAVFEPHFSQKDDEGNIIKKKFAVACRVRNCTKLDRMTVISALAAAVGQ — lower, 46500
- FEFQHTRLYMAFRELEGKLLPCLIEANGLDLVIATLLSVVEKVTEVSNIRLTS — lower, 35600
- KLWAKRRAIYGNVFGFPGGVAWAMLVARICQLYPNAVSATIVGKFFNILTKWN — lower, 33200
- KKSSTSSTAAPKKRTPAKKSTPAPTPSPSASPEPVKPKKTSSKKAAKPVAVAE — lower, 25400
- AFLCWVAPNNATANFIGAGFGGMGFLNLSLDWSNISNLYNLFLTPWWTQVVVY — higher, 83700
- PQCYNNWKSLLLLQRYLYFVLPPFPVHFLPIFKILCTYIQLLIWFATISLASL — lower, 40700
- GRRRDNGGRRQGGGRRDGGGGGGGGGGRGRGERGGGGGERGERGGGARPKKTQ — lower, 34900
- SGKQGGRKSGSPHGRRPAIQGARRKGKQSSRKPTGKQTKQSPGKSGARKAFGK — lower, 42400
- PSIFFLLFICYFVICSIHVDLCYYDSLFNCLFFISSMFSHNYLFFCLCLCYHV — higher, 64200
- MAERNLTLFSSFFFFLLFFFFFFFFFLEDVFLFFLRMLFTFVGSWFFFFFSYL — lower, 7100
- TLQRIVLDFFTAPCFSDVIVADILTSFARVFGDLSTVFFTLVWGSCPHWIPPF — higher, 61200
- LDKKSGRLIKHSLCFTYKDLELLTRFFKEDHVIHPTIKAYVLAACTVLFHLLL — higher, 62500
- WIDTVLIVLFSNDVQIKHKLGRLIIDEWIQIKCPTRTCLLLKLLRKKLHNSLA — lower, 33500
- FPTLGFVVDRYFRVTNFVPETFWSIKVVHKKDSINVNFNWKRGHLFDRMTVTV — higher, 71400
- TESVCWDFVWLTFYFTFGLTSLITSWAALPPLSQWSLSFGQLVPIFLLLFFLT — lower, 46700
- GAGVGGATDGAEGKKGDGGGGKEKEREEGERRKKKKKRNKEGRDGGGGGTGGD — lower, 43300
- MVLCPSSYSFPLPPFFLFFFLSSPFFFAALFFFFPFLPPNSRVCPSLFPLSLL — higher, 62600
- GFHHLLPVFQMLLFKLDHRLYMNIGDVAKFLNITTINVLLLQLTDLHSLINIP — lower, 54900
- GLVYMIGVYSISGLDRTLQMIHAILHVNFNSLVHKKGITHSCLLWLILIFFGL — lower, 48000
- EEPKAEEAAPAAEAPAAEAPAAETPAAEPAAEQPATEEAKPAESAATETKKED — lower, 12500
- KAAAMKKVLAKPADKTKKTSSAKNDTKKAAAKAAATKPKARTTKTAKAAAATK — lower, 7370
- LVVCCLASQVFIDSILLLPVKIVPPFYRLLSGVVNLVICRLTLFFLGFWWIPV — higher, 59500
- ETIHGPAPATSFDDTNFTWQLFDESPGFDPLAQLQSFSDFGLSGHDLLFGFMD — higher, 123000
- MVYCISFCLALFESLLYSIVADTNILIHYFLFFLLLFCQFVYFLNNTFFIFLS — lower, 51800
- ANGDDSAAPKPEGQEDKPVESNGASASAAAPSEPQQQEGQPKAEPAEPAPATV — lower, 26400
- GDFESKCYLFEPSELRFPPHVFSLTNGRLYRRWYFLDLQSGMLFRFFYICDWR — lower, 32700
- MSSVAAAESKPEKKQKKDKSSKSEKKRLREDDAADAERKHKKSKSLASSEVAA — lower, 15100
- PAPAAKKEEKPAAATAEAPKEEAAAAVAAEEPKETKEEEKKEEAKEEKKEEAK — lower, 15800
- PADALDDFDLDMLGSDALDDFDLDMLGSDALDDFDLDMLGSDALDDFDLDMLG — higher, 152000
- MIGHWFVLLNLISNWIVLSSFSILFYIYIYMPLYCHYAPFIFMLFLLYIPLLI — lower, 48800
- RDRKKRKVDGSEDSDDSDDDGTRGKGRGKSKSKGKGKSKEKKKKSSRKSKKAE — lower, < 6570
- MCCLLLFSPSFLCFFFAFFFYFTFYMTHLSDFSFLQRAIGLTYVFIWLIYRAH — lower, 38100
- GHGSSDGGRPPAKRARKAINCEPCRSSKLKCDRNRPCSSCVLRGTAAQCYPGS — lower, 38800
- IIFVELYSYLLYYIYLNIRIFLRFSSSIVLDFELFCFPPSHFPFNFFVCILFT — higher, 74000
- LLLLLLYFFLFLFLFLFLCSQVLCLGQVDLVDLEKPFVFQSFFEIFPTLLFLP — lower, 35100
- SLGCLVKQAEYQVDGRSIGMDGYLFFFFFACCCFLYTSGLSFLYLFWFFFLVF — lower, 22900
- IFVYLRIKKCCCLNKSSLLLDVRLIHKNRDTVIIFARGLVGIFKKLSLRVVEC — lower, 51200
- SNGTSLFVTCWVALNVFFHFYRLPLRWDFFFVFADRAGLIFIVNLPLLYLLAA — higher, 59500
- IRTLRRSAREVLTVYWVLHGILPFPSIHSLDPYILSRRWSLCLNCLFLYALYF — lower, 49700
- MLIIGRIARWYIHPIAIVWFYLLHVSHFLYFLLVAEFQPRYIHVYLYLYLLST — lower, 47400
- MASKDPVYDEKTGAPKLVAESDSSNVETGGGTPERTLHRQLKNRHIAMISIGG — lower, 44900
- GVMIVRKRLLIAIATVYGSPDRGLRRIIQSIGKVLWRHGLLSDQFYSAGEIFS — higher, 69800
- YIAPCGTWTPYMNLFLGSTVCIFIGFDVFAPFSYRGLITNYFGLLWFCFMFLF — higher, 78400
- PAYKLLVAAIWSLEIVDQAFIGHCVYYYTISNYMSPQVLLFGDVIWTLIIQLV — lower, 43000
- NGLLRDVHVVFQDSSFCARLTEQIRRRLRMISSNWRETCCMEMLITLSLRLFH — lower, 45100
- MLICLFVVFSPFFLFIFLYLSAYRLSFFNFSCFLLFLYLFLIHLLYFPLYFIF — higher, 61200
- PFFSLDNIMATFDTSTGKLRIWGIRAKPRFVWFCSKEHLLPCMNVKMIRYNSI — higher, 64600
- ASSASTGKGEEEEEDGEEKVRGKGKGQGQGQSQGQGQGQGQEAQERRDDEASA — lower, 31700
- AEDADADGRTQRQGKGAGASSGSERRTHKARSRKSAKLDSKEKDGEKDKEWKG — lower, 23600
- RFLLCLLCMELLLHFVYVGAINSSLPVWDSYTPAQLSLLSFQNLIIIWLKLLL — lower, 36800
- LLTYKLYRLWIVAAKITDDEKRKQCLHLTCCLLPKCHRDSLEILFYFLKWAGT — lower, 50700
- MTVMTLCFFGSSFGPWAGAWFCCLLLLLLLLVIAVSLFLHVCFAWEFWFCLCY — lower, 39500
- KGAPKKSKGEEKEEVVAEETKVEVKVVKETKKVDKAAKAETKKDEVKKVKKVE — lower, 46000
- IWGSANTLPKYLYFISRYFGLLGQLVVSTNLVPMFCFDYLVWSFGFLFTLILS — higher, 87200
- PDELVKSASRLEIDDPSPVTADGAKKSKNQLKKEQKARQLQLQRSLGPASGAP — lower, < 6570
- GRGKESLLVLSGCSLIQIPVPVWGYHIAFVVCQKYYGSHLGIVHLILPFAFTI — lower, 47800
- RVSDYSMAQFRFLLKFLLVHGRWNYIRICKYTISTFWKELLFYLTQAMYQRWN — lower, 28800
- KQYCVRPNSGRIEPGGEVDVQILLQAMKEDPPADAKCRDKFLVQSVLVTADKE — lower, 50100
- LSLVLWCCGLKKSDLAIYLAWTFLVWPGPSPIFCHLSFLLLLLAFFLLPLLSV — higher, 78100
- MGVCLCVALFAPFFSLFFFLSPAPYCSGKIWHLSILFLLYHCRRVLPLFILAC — lower, 49600
